{"source": "patent US8187838B2", "about": "“β-Galactoside-α2, 6-sialyltransferase, a gene encoding thereof, and a method for producing thereof” (Japan Tobacco Inc., priority 2006, dated 2012)", "molecules": {"B1": {"name": "ISH224-N1C0 (protein, listed as Photobacterium sp.)", "chain": "MSEENTQSIIKNDINKTIIDEEYVNLEPINQSNISFTKHSWVQTCGTQQLLTEQNKESISLSVVAPRLDDDEKYCFDFNGVSNKGEKYITKVTLNVVAPSLEVYVDHASLPTLQQLMDIIKSEEENPTAQRYIAWGRIVPTDEQMKELNITSFALINNHTPADLVQEIVKQAQTKHRLNVKLSSNTAHSFDNLVPILKELNSFNNVTVTNIDLYDDGSAEYVNLYNWRDTLNKTDNLKIGKDYLEDVINGINEDTSNTGTSSVYNWQKLYPANYHFLRKDYLTLEPSLHELRDYIGDSLKQMQWDGFKKFNSKQQELFLSIVNFDKQKLQNEYNSSNLPNFVFTGTTVWAGNHEREYYAKQQINVINNAINESSPHYLGNSYDLFFKGHPGGGIINTLIMQNYPSMVDIPSKISFEVLMMTDMLPDAVAGIASSLYFTIPAEKIKFIVFTSTETITDRETALRSPLVQVMIKLGIVKEENVLFWADLPNCETGVCIAV"}}, "type_in_all_cases": "biochemical", "key": {"[1]": {"assay": "Sialyltransferase activity of samples after each purification step", "details": "for Specific activity (U/mg) / Total activity (U): Bis-Tris pH 6, 5 minutes, 25° C.", "description": "Sialyltransferase activity was measured as described in J. Biochem., 120, 104-110 (1996) (which is hereby incorporated by reference in its entirety). More specifically, the enzymatic reaction was accomplished by using CMP-NeuAc (70 nmol, containing about 20,000 cpm CMP-NeuAc in which NeuAc was labeled with ^14C; NeuAc represents N-acetylneuraminic acid) as a glycosyl donor substrate, lactose (1.25 μmol) as a glycosyl acceptor substrate, NaCl added to give a concentration of 0.5 M, and the enzyme-containing reaction solution (30 μl) prepared as described above. The enzymatic reaction was carried out at 25° C. for about 10 to 180 minutes. After completion of the reaction, 1.97 ml of 5 mM phosphate buffer (pH 6.8) was added to the reaction solution, which was then applied to a Dowex 1×8 (PO4^3− form, 0.2×2 cm, BIO-RAD) column. The radioactivity was measured for the reaction product, i.e., sialyllactose contained in the eluate (0 to 2 ml) from this column to calculate the enzyme activity. One enzyme unit (1 U) is defined as the amount of enzyme required to transfer 1 micromole of sialic acid per minute.\n(§1) The enzyme activity was measured by the method reported in J. Biochem. 120, 104-110 (1996), in the same manner as described in Example 1 under conditions as indicated in the footnote of Table 3-1. For protein quantification, a Coomassie Protein Assay Reagent (PIERCE) was used according to the instruction manual attached thereto. One enzyme unit (1U) was defined as the amount of enzyme required to transfer 1 micromole of sialic acid per minute.\nReaction time: 5 minutes Reaction temperature: 25° C.\nas §1, with “3-2.” for “3-1.”\n(§2) Reaction Conditions Reaction composition:\nReaction time: 5 minutes Reaction temperature: 30° C."}, "[2]": {"tested_on": "asialofetuin", "assay": "Sialic acid transfer to glycoprotein acceptor", "details": "25° C., 2 hours", "description": "As a glycosyl acceptor substrate, asialofetuin was used. Asialofetuin (2 mg) was dissolved in 1 ml of 20 mM Bis-Tris buffer (pH 6.0) and used as a glycosyl acceptor substrate solution. As a glycosyl donor substrate, CMP-NeuAc was used. The glycosyl acceptor substrate solution (40 μl), the glycosyl donor substrate (5 μl) and either of the enzyme solutions (5 μl, 10 mU each) were mixed and incubated at 25° C. for 2 hours to cause sialic acid transfer reaction. After completion of the reaction, the reaction solution was gel-filtered by being applied to a SEPHADEX® G-50 Superfine (0.8×18.0 cm) equilibrated with 0.1 M sodium chloride. A glycoprotein-containing eluate fraction (2-4 ml fraction) from gel filtration was collected and measured for its radioactivity using a liquid scintillation counter to quantify sialic acid transferred to the glycosyl acceptor substrate."}, "[3]": {"assay": "Time-dependent induction of expression, sialyltransferase activity and productivity in E. coli homogenate", "details": "for Total enzyme activity (unit): 0.3 L culture; for Amount of transferred sialic acid / Radioactivity (CPM): 1 minute, 30° C.; for Radioactivity (CPM): crude enzyme diluted 200-fold", "description": "A time-dependent induction experiment of protein expression was performed on the ISH224-N0C0 and ISH224-N1C0 clones obtained in Example 2. A single colony of E. coli TB1 having the expression vector pTrc99A carrying each clone was inoculated into LB medium (6 ml) containing an antibiotic, ampicillin (final concentration 100 μg/mL), and pre-cultured at 30° C. for about 8 hours. This pre-cultured solution was inoculated into LB medium (300 ml) containing and antibiotic, ampicillin (final concentration 100 μg/mL) and cultured with shaking at 30° C. When OD600 reached around 0.5, IPTG (isopropyl-β-D(−)-thiogalactopyranoside, Wako Pure Chemical Industries, Ltd., Japan) was added at a final concentration of 1 mM, followed by culturing with shaking at 30° C. At 4, 6, 22 and 28 hours after culturing, the cells in each culture solution were collected by centrifugation. These cells were suspended in 20 mM Bis-Tris buffer (pH 6.0) containing 0.336% […] Triton® X-100, and ultrasonically homogenized under ice cooling. The resulting homogenate was defined as a crude enzyme solution, diluted 200-fold with 20 mM cacodylate buffer (pH 5.0) containing 0.336% Triton X®-100, and then provided for activity measurement. The reaction was carried out in duplicate. The reaction conditions are as indicated in the footnote of Table 2.\nas §2\nReaction time: 1 minute Reaction temperature: 30° C."}, "[4]": {"details": "after MONO Q (purified fraction)"}}, "data": [{"molecule": "B1", "values": [{"measurement": "Specific activity (U/mg)", "setting": "[1]; Crude enzyme solution", "value": 12.0, "unit": "U/mg"}, {"measurement": "Total activity (U)", "setting": "[1]; Crude enzyme solution", "value": 13167, "unit": "U"}, {"measurement": "Specific activity (U/mg)", "setting": "[1]; after Hydroxyapatite", "value": 68.3, "unit": "U/mg"}, {"measurement": "Total activity (U)", "setting": "[1]; after Hydroxyapatite", "value": 9448, "unit": "U"}, {"measurement": "Specific activity (U/mg)", "setting": "[1]; [4]", "value": 113, "unit": "U/mg"}, {"measurement": "Total activity (U)", "setting": "[1]; [4]", "value": 2720, "unit": "U"}, {"measurement": "Specific activity (U/mg)", "setting": "[1]; after Q SEPHAROSE", "value": 31.8, "unit": "U/mg"}, {"measurement": "Total activity (U)", "setting": "[1]; after Q SEPHAROSE", "value": 11794, "unit": "U"}, {"measurement": "fold higher specific activity than Pasteurella multocida-derived β-galactoside-α2,3-sialyltransferase (60 U/mg)", "setting": "[1]; purified fraction", "value": "about 1.9 fold"}, {"measurement": "fold higher specific activity than β-galactoside-α2,6-sialyltransferase derived from Photobacterium damselae strain JT0160 (5.5 U/mg)", "setting": "[1]; purified fraction", "value": "about 21 fold"}, {"measurement": "Radioactivity (cpm)", "setting": "[2]; 10 mU enzyme, glycoprotein fraction after gel filtration", "value": 3051, "unit": "cpm"}, {"measurement": "sialic acid transfer to asialofetuin (in words)", "setting": "[2]", "value": "higher efficiency of sialic acid transfer"}, {"measurement": "fold higher productivity than Pasteurella multocida-derived α2,3-sialyltransferase (6,000 U/L)", "setting": "[3]", "value": "about 1.8 fold"}, {"measurement": "fold higher productivity than Photobacterium damselae-derived recombinant β-galactoside-α2,6-sialyltransferase (224.5 U/L)", "setting": "[3]", "value": "about 48 fold"}, {"measurement": "Enzyme concentration in crude enzyme solution (unit/ml)", "setting": "[3]; 4 hours after IPTG addition", "value": 6.8, "unit": "unit/ml"}, {"measurement": "Productivity (U/L of medium)", "setting": "[3]; 4 hours after IPTG addition", "value": "589 U/L of medium"}, {"measurement": "Total enzyme activity (unit)", "setting": "[3]; 4 hours after IPTG addition", "value": 177, "unit": "unit"}, {"measurement": "Amount of transferred sialic acid", "setting": "[3]; 4 hours after IPTG addition", "value": 0.17, "unit": "nmol"}, {"measurement": "Radioactivity (CPM)", "setting": "[3]; 4 hours after IPTG addition", "value": 142.5, "unit": "CPM"}, {"measurement": "Enzyme concentration in crude enzyme solution (unit/ml)", "setting": "[3]; 6 hours after IPTG addition", "value": 14.8, "unit": "unit/ml"}, {"measurement": "Productivity (U/L of medium)", "setting": "[3]; 6 hours after IPTG addition", "value": "1285 U/L of medium"}, {"measurement": "Total enzyme activity (unit)", "setting": "[3]; 6 hours after IPTG addition", "value": 385, "unit": "unit"}, {"measurement": "Amount of transferred sialic acid", "setting": "[3]; 6 hours after IPTG addition", "value": 0.37, "unit": "nmol"}, {"measurement": "Radioactivity (CPM)", "setting": "[3]; 6 hours after IPTG addition", "value": 311.0, "unit": "CPM"}, {"measurement": "Enzyme concentration in crude enzyme solution (unit/ml)", "setting": "[3]; 22 hours after IPTG addition", "value": 86.2, "unit": "unit/ml"}, {"measurement": "Productivity (U/L of medium)", "setting": "[3]; 22 hours after IPTG addition", "value": "10776 U/L of medium"}, {"measurement": "Total enzyme activity (unit)", "setting": "[3]; 22 hours after IPTG addition", "value": 3233, "unit": "unit"}, {"measurement": "Amount of transferred sialic acid", "setting": "[3]; 22 hours after IPTG addition", "value": 2.16, "unit": "nmol"}, {"measurement": "Radioactivity (CPM)", "setting": "[3]; 22 hours after IPTG addition", "value": 1809.0, "unit": "CPM"}, {"measurement": "Productivity (U/L of medium)", "setting": "[3]; 22 hours after IPTG addition, listed as ISH224-N1C0 clone", "value": "10,776 U/L of medium"}, {"measurement": "Enzyme concentration in crude enzyme solution (unit/ml)", "setting": "[3]; 28 hours after IPTG addition", "value": 69.5, "unit": "unit/ml"}, {"measurement": "Productivity (U/L of medium)", "setting": "[3]; 28 hours after IPTG addition", "value": "8946 U/L of medium"}, {"measurement": "Total enzyme activity (unit)", "setting": "[3]; 28 hours after IPTG addition", "value": 2684, "unit": "unit"}, {"measurement": "Amount of transferred sialic acid", "setting": "[3]; 28 hours after IPTG addition", "value": 1.74, "unit": "nmol"}, {"measurement": "Radioactivity (CPM)", "setting": "[3]; 28 hours after IPTG addition", "value": 1459.0, "unit": "CPM"}, {"measurement": "time of maximum β-galactoside-α2,6-sialyltransferase activity after IPTG addition", "setting": "[3]; culture at 30° C., 1 mM IPTG", "value": 22, "unit": "h"}]}]}
